B1: endothelin-converting enzyme 2 (ECE2) (protein)
chain: GVQYHRDPSHSTCLTEACIRVAGKILESLDRGVSPCEDFYQFSCGGWIRRNPLPDGRSRWNTFNSLWDQNQAILKHLLENTTFNSSSEAEQKTQRFYLSCLQVERIEELGAQPLRDLIEKIGGWNITGPWDQDNFMEVLKAVAGTYRATPFFTVYISADSKSSNSNVIQVDQSGLFLPSRDYYLNRTANEKVLTAYLDYMEELGMLLGGRPTSTREQMQQVLELEIQLANITVPQDQRRDEEKIYHKMSISELQALAPSMDWLEFLSFLLSPLELSDSEPVVVYGMDYLQQVSELINRTEPSILNNYLIWNLVQKTTSSLDRRFESAQEKLLETLYGTKKSCVPRWQTCISNTDDALGFALGSLFVKATFDRQSKEIAEGMISEIRTAFEEALGQLVWMDEKTRQAAKEKADAIYDMIGFPDFILEPKELDDVYDGYEISEDSFFQNMLNLYNFSAKVMADQLRKPPSRDQWSMTPQTVNAYYLPTKNEIVFPAGILQAPFYARNHPKALNFGGIGVVMGHELTHAFDDQGREYDKEGNLRPWWQNESLAAFRNHTACMEEQYNQYQVNGERLNGRQTLGENIADNGGLKAAYNAYKAWLRKHGEEQQLPAVGLTNHQLFFVGFAQVWCSVRTPESSHEGLVTDPHSPARFRVLGTLSNSRDFLRHFGCPVGSPMNPGQLCEVW
Aβ(1-42), P05067
  Aβ cleavage (ELISA-based assay of intact Aβ): ECE2 and ACE were completely inactive on both Aβ isoforms
Aβ(1-40), P05067
  Aβ cleavage (ELISA-based assay of intact Aβ): ECE2 and ACE were completely inactive on both Aβ isoforms

B2: angiotensin-converting enzyme (ACE) (protein)
chain: LDPGLQPGNFSADEAGAQLFAQSYNSSAEQVLFQSVAASWAHDTNITAENARRQEEAALLSQEFAEAWGQKAKELYEPIWQNFTDPQLRRIIGAVRTLGSANLPLAKRQQYNALLSNMSRIYSTAKVCLPNKTATCWSLDPDLTNILASSRSYAMLLFAWEGWHNAAGIPLKPLYEDFTALSNEAYKQDGFTDTGAYWRSWYNSPTFEDDLEHLYQQLEPLYLNLHAFVRRALHRRYGDRYINLRGPIPAHLLGDMWAQSWENIYDMVVPFPDKPNLDVTSTMLQQGWNATHMFRVAEEFFTSLELSPMPPEFWEGSMLEKPADGREVVCHASAWDFYNRKDFRIKQCTRVTMDQLSTVHHEMGHIQYYLQYKDLPVSLRRGANPGFHEAIGDVLALSVSTPEHLHKIGLLDRVTNDTESDINYLLKMALEKIAFLPFGYLVDQWRWGVFSGRTPPSRYNFDWWYLRTKYQGICPPVTRNETHFDAGAKFHVPNVTPYIRYFVSFVLQFQFHEALCKEAGYEGPLHQCDIYRSTKAGAKLRKVLQAGSSRPWQEVLKDMVGLDALDAQPLLKYFQPVTQWLQEQNQQNGEVLGWPEYQWHPPLPDNYPEGIDLVTDEAEASKFVEEYDRTSQVVWNEYAEANWNYNTNITTETSKILLQKNMQIANHTLKYGTQARKFDVNQLQNTTIKRIIKKVQDLERAALPAQELEEYNKILLDMETTYSVATVCHPNGSCLQLEPDLTNVMATSRKYEDLLWAWEGWRDKAGRAILQFYPKYVELINQAARLNGYVDAGDSWRSMYETPSLEQDLERLFQELQPLYLNLHAYVRRALHRHYGAQHINLEGPIPAHLLGNMWAQTWSNIYDLVVPFPSAPSMDTTEAMLKQGWTPRRMFKEADDFFTSLGLLPVPPEFWNKSMLEKPTDGREVVCHASAWDFYNGKDFRIKQCTTVNLEDLVVAHHEMGHIQYFMQYKDLPVALREGANPGFHEAIGDVLALSVSTPKHLHSLNLLSSEGGSDEHDINFLMKMALDKIAFIPFSYLVDQWRWRVFDGSITKENYNQEWWSLRLKYQGLCPPVPRTQGDFDPGAKFHIPSSVPYIRYFVSFIIQFQFHEALCQAAGHTGPLHKCDIYQSKEAGQRLATAMKLGFSRPWPEAMQLITGQPNMSASAMLSYFKPLLDWLRTENELHGEKLGWPQYNWTPNSARSEGPLPDSGRVSFLGLDLDAQQARVGQWL
Aβ(1-42), P05067
  Aβ cleavage (ELISA-based assay of intact Aβ): ECE2 and ACE were completely inactive on both Aβ isoforms
Aβ(1-40), P05067
  Aβ cleavage (ELISA-based assay of intact Aβ): ECE2 and ACE were completely inactive on both Aβ isoforms

— US20260183373
